Measurements reported in paper PMC10397247.
Read-outs that look alike come from different tables or passages of the source.

T1: P6-AA-1HGe-R
T1 chain: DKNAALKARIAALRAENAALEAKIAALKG

T2: P6-AA-1HGe-W
T2 chain: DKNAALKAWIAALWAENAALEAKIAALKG

T3: P6-AA-1HGe-T
T3 chain: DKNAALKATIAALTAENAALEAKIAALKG

T4: P6-AA-1HGe-S
T4 chain: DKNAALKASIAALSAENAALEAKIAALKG

T5: P6-AA-1HGe-A
T5 chain: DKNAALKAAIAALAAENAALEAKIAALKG

T6: P6-AA-1HGe-M
T6 chain: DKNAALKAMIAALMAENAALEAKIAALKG

T7: 4H687-bA
T7 chain: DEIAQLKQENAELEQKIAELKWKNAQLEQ

T8: 4H797-bA
T8 chain: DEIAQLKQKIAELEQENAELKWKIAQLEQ

T9: 4H3843-bA
T9 chain: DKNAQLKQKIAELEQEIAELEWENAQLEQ

T10: 4H72-bA
T10 chain: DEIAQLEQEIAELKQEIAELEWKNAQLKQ

T11: 4H883-bA
T11 chain: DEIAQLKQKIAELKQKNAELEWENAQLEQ

T12: 4H370-bA
T12 chain: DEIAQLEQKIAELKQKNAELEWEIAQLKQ

T13: 4H462-bA
T13 chain: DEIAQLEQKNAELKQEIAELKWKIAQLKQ

T14: 4H953-bA
T14 chain: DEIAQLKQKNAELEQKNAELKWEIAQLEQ

T15: 4H4001-bA
T15 chain: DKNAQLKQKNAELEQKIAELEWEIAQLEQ

T16: 4H918-bA
T16 chain: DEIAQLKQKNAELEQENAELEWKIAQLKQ

T17: 4H3782-bA
T17 chain: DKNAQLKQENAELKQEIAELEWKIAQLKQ

T18: 4H607-bA
T18 chain: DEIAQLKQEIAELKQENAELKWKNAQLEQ

T19: 4H3189-bA
T19 chain: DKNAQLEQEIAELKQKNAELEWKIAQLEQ

T20: 4H3606-bA
T20 chain: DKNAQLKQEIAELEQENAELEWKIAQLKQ

T21: 4H967-bA
T21 chain: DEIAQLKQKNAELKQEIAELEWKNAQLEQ

T22: 4H331-bA
T22 chain: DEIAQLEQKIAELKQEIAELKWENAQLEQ

T23: 4H568-bA
T23 chain: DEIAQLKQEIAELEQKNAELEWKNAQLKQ

T24: 4H3855-bA
T24 chain: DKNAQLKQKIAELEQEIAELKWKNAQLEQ

T25: 4H338-bA
T25 chain: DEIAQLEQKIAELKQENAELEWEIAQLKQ

T26: 4H717-bA
T26 chain: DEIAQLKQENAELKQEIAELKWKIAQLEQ

T27: 4H754-bA
T27 chain: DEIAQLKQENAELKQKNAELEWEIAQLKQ

T28: 4H454-bA
T28 chain: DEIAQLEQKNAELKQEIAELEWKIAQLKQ

T29: 4H3354-bA
T29 chain: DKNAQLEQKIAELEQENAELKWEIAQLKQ

T30: 4H3427-bA
T30 chain: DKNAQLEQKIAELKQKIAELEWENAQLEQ

T31: 4H908-bA
T31 chain: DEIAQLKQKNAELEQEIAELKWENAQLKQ


Experiments:
P6-AA-1HGe-R = molecular target: T1, P6-AA-1HGe-R; test: two-hybrid library CCmax; conditions: mean of both orientations;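 also: natural log of median RNA to DNA barcode read ratio; higher means stronger binding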
P6-AA-1HGe-W = molecular target: T2, P6-AA-1HGe-W; test: two-hybrid library CCmax; conditions: mean of both orientations;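 also: natural log of median RNA to DNA barcode read ratio; higher means stronger binding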
P6-AA-1HGe-T = molecular target: T3, P6-AA-1HGe-T; test: two-hybrid library CCmax; conditions: mean of both orientations;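 also: natural log of median RNA to DNA barcode read ratio; higher means stronger binding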
P6-AA-1HGe-S = molecular target: T4, P6-AA-1HGe-S; test: two-hybrid library CCmax; conditions: mean of both orientations;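 also: natural log of median RNA to DNA barcode read ratio; higher means stronger binding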
P6-AA-1HGe-A = molecular target: T5, P6-AA-1HGe-A; test: two-hybrid library CCmax; conditions: mean of both orientations;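 also: natural log of median RNA to DNA barcode read ratio; higher means stronger binding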
P6-AA-1HGe-M = molecular target: T6, P6-AA-1HGe-M; test: two-hybrid library CCmax; conditions: mean of both orientations;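 also: natural log of median RNA to DNA barcode read ratio; higher means stronger binding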
4H687-bA = molecular target: T7, 4H687-bA; test: two-hybrid library CCNG1
4H797-bA = molecular target: T8, 4H797-bA; test: two-hybrid library CCNG1
4H3843-bA = molecular target: T9, 4H3843-bA; test: two-hybrid library CCNG1
4H72-bA = molecular target: T10, 4H72-bA; test: two-hybrid library CCNG1
4H883-bA = molecular target: T11, 4H883-bA; test: two-hybrid library CCNG1
4H370-bA = molecular target: T12, 4H370-bA; test: two-hybrid library CCNG1
4H462-bA = molecular target: T13, 4H462-bA; test: two-hybrid library CCNG1
4H953-bA = molecular target: T14, 4H953-bA; test: two-hybrid library CCNG1
4H4001-bA = molecular target: T15, 4H4001-bA; test: two-hybrid library CCNG1
4H918-bA = molecular target: T16, 4H918-bA; test: two-hybrid library CCNG1
4H3782-bA = molecular target: T17, 4H3782-bA; test: two-hybrid library CCNG1
4H607-bA = molecular target: T18, 4H607-bA; test: two-hybrid library CCNG1
4H3189-bA = molecular target: T19, 4H3189-bA; test: two-hybrid library CCNG1
4H3606-bA = molecular target: T20, 4H3606-bA; test: two-hybrid library CCNG1
4H967-bA = molecular target: T21, 4H967-bA; test: two-hybrid library CCNG1
4H331-bA = molecular target: T22, 4H331-bA; test: two-hybrid library CCNG1
4H568-bA = molecular target: T23, 4H568-bA; test: two-hybrid library CCNG1
4H3855-bA = molecular target: T24, 4H3855-bA; test: two-hybrid library CCNG1
4H338-bA = molecular target: T25, 4H338-bA; test: two-hybrid library CCNG1
4H717-bA = molecular target: T26, 4H717-bA; test: two-hybrid library CCNG1
4H754-bA = molecular target: T27, 4H754-bA; test: two-hybrid library CCNG1
4H454-bA = molecular target: T28, 4H454-bA; test: two-hybrid library CCNG1
4H3354-bA = molecular target: T29, 4H3354-bA; test: two-hybrid library CCNG1
4H3427-bA = molecular target: T30, 4H3427-bA; test: two-hybrid library CCNG1
4H908-bA = molecular target: T31, 4H908-bA; test: two-hybrid library CCNG1

interaction score (4H687-bA)	interaction score (4H797-bA)	interaction score (4H3843-bA)	interaction score (4H72-bA)	interaction score (4H883-bA)	interaction score (4H370-bA)	interaction score (4H953-bA)	interaction score (4H4001-bA)	interaction score (4H918-bA)	interaction score (4H3782-bA)	interaction score (4H607-bA)	interaction score (4H3606-bA)	interaction score (4H967-bA)	interaction score (4H331-bA)	interaction score (4H568-bA)	Binder	other results
															DENAALEAHIAALHAKNAALKAEIAALEG [P5-AA-1HGe-H]	interaction score (P6-AA-1HGe-R): 1.63; interaction score (P6-AA-1HGe-W): 0.42; interaction score (P6-AA-1HGe-T): 1.88; interaction score (P6-AA-1HGe-S): 1.02; interaction score (P6-AA-1HGe-A): 1.88; interaction score (P6-AA-1HGe-M): 1.95
-0.444	-1.42	-1.24	-1.18	-1.22	-0.547	-1.34	-0.765	-1.44	-0.906	-1.11	-0.875	-1.1	-1.26	-1.19	DKNAQLEQEIAELKQKNAELEWKIAQLEQ [4H3189-bA]	interaction score (4H462-bA): -1.62; interaction score (4H3189-bA): 0.465
-0.899	-0.644	0.72	1.23	-0.483	-0.724	-1.28	0.0797	-0.884	-0.0209	-1.42	-0.929	-1.16	-0.244	-0.11	DEIAQLEQKIAELKQEIAELKWENAQLEQ [4H331-bA]	interaction score (4H3855-bA): 0.317; interaction score (4H338-bA): -0.867; interaction score (4H462-bA; mean of both orientations): -0.426; interaction score (4H717-bA): -1.06; interaction score (4H754-bA): -0.893; interaction score (4H454-bA): 0.885; interaction score (4H3354-bA): -0.749; interaction score (4H3427-bA): 0.677; interaction score (4H908-bA): -1.83
